Experimental findings from US20060062793A1, “Modified antibodies to prostate-specific membrane antigen and uses thereof” (priority 2004, published 2006) are described below.

In data set [1] the test system is LNCap membrane preparation. The data set is described as follows: ELISA for binding of J415 deimmunized antibodies to LNCap membrane preparation. On the set-up: species or system human. As to the method:
The J415 deimmunized antibodies (including various combinations of the deimmunized light chain and heavy chain subunits) were tested in an ELISA for binding to LNCap membrane preparation following the protocol as detailed above. ELISA plates were coated with LNCap membrane preparation and blocked with 5% BSA in phosphate buffered saline. Doubling dilutions of the J415 chimeric antibody (murine variable heavy and light chain regions fused to human constant heavy and light chain regions, respectively) and the deimmunized antibodies were applied. Detection was with horseradish peroxidase conjugated goat anti-human IgG and donkey anti-mouse for chimeric and mouse antibodies respectively. Color was developed with o-phenylene diamine substrate.
On the technique in general: ELISA stands for enzyme-linked immunosorbent assay.

For data set [2], the system named is PSMA-positive human LNCaP tumors. Kind of data set: Biodistribution of 111In labeled MAbs in nude mice bearing LNCaP tumors. It is filed as in vivo, mouse. As to the method: Prior to use, the cells were trypsinized, counted and suspended in Matrigel (Collaborative Biomedical Products, Bedford, Mass.). Nu/Nu Balb C mice 8-10 weeks of age were inoculated, in the right and left flanks, with a suspension of 5×10^6 LNCaP cells in Matrigel (BD Biosciences, Bedford Mass.). After a period of 14-18 days, tumors (100-300 mg) had developed. The PSMA-negative DU145 and PC3 cells were implanted in nude mice in an identical manner.
The PSMA-positive and PSMA-negative tumor bearing mice were injected, via the tail vein, with 80 KBq of the iodinated MAb (400 MBq/mg) in 200 μL of PBS (pH 7.4, 0.2% BSA). Groups of animals (3-8/group) were sacrificed after 2, 4 or 6 days. The major organs and tumors were recovered. The tissue samples were weighed and counted, with appropriate standards in an automatic NaI(Tl) counter. These measured relative activity data (cpm) were background corrected and expressed as a percentage of the injected dose per gram (% ID/g). […] J415, J591 and 7E11 were labeled with ^111In (100 MBq/mg). 80 KBq of the ^111In labeled MAbs were injected in groups of animals. The % ID/g in various organs and tumor tissues was determined at 2-6 days post injection in a similar way as described for ^131I labeled MAbs.

Data set [3] concerns LNCaP tumor sections. Type of data set: in vivo, mouse. To be noted: 131I-labeled, 4 to 6 days after intravenous injection.
From the text: For several animals (n=20), harvested tumor samples were immediately cooled in liquid nitrogen and frozen in embedding medium (O.C.T. 4583, Sakura Finetec, Torrance Calif.). Twenty micron sections were cut and the tumor sections were either fixed with acetone and placed in direct contact with a sheet of photographic film (Biomax, Kodak, Rochester, N.Y.) or stained with hematoxin/eosin prior to exposure of the film. Tumors from control animals were collected and cut into 10 μm sections. […] Non-specific binding was determined in the presence of 100 nM J591 MAb. These sections were then washed 3 times with PBS (containing 0.2% BSA) and once with Tris buffer prior to being fixed with acetone and then exposed to photographic film.

Substitutions are numbered along the chain they refer to.

B1: deJ415: deimmunized J415, heavy chain J415DIVH4 combined with light chain J415DIVK5; ATCC PTA-4174 (antibody, V domains shown)
VH: EVKLEESGGGLVQPGGSMKISCVASGFTFSNYWMNWVRQSPEKGLEWVAEIRSQSNNFATHYAESVKGRVIISRDDSKSSVYLQMNSLRAEDTAVYYCTRRWNNFWGQGTTVTVSS
VL: NIVMTQFPKSMSASAGERMTLTCKASENVGTYVSWYQQKPTQSPKMLIYGASNRFTGVPDRFSGSGSGTDFILTISSVQAEDLVDYYCGQSYTFPYTFGGGTKLEMK
Turning to B1, the “binding to LNCap cells as compared to the chimeric antibody” value in data set [1] is “equivalent binding”.

B2: J415: murine monoclonal antibody to human PSMA; hybridoma ATCC HB-12109 (antibody, V domains shown)
VH: B1 VH with I20L, S87N, A94G, V95I, V112L
VL: B1 VL with A13I, A15V, M19V, T41E, S63T, G68A, A80T
Take B2: in data set [2], the “kinetics of blood clearance” value is on record as “faster compared to 7E11”; the “tumor uptake over time” value is “gradually increased with time and is quite similar to that of 7E11”; the tumor/blood ratios entry is reported as “significantly higher compared to that of 7E11”. Also, the intra-tumoral distribution pattern entry in data set [3] was “distinct preferential accumulation in areas of viable tumor”.
